Values belong to the binder of their own block, whether it stands above or below them.
Key:
[1] = biological target: T1, human THAP1 (THanatos-Associated-Protein-1), full length (human, UniProt Q9NVV9 1-213); experiment: yeast two-hybrid
T1 construct: these tags are not written into the chain; also called hTHAP1; THAP1 wild type
T1 sequence: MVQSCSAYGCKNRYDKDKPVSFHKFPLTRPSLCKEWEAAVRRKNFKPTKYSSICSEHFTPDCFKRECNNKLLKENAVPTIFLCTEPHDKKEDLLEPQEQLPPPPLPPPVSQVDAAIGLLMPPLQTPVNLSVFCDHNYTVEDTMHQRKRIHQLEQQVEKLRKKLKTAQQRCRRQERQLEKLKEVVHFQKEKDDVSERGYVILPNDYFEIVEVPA

[2] = biological target: T2, human chemokine SLC/CCL21, mature form (amino acids 24-134) (human, UniProt O00585 24-134); experiment: yeast two-hybrid
T2 construct: GenBank NP-002980; Used as Gal4 fusion in two-hybrid and as 35S-labelled in vitro translation product in pull-downs; also called SLC/6Ckine; SLC/CCL21 wild type
T2 sequence: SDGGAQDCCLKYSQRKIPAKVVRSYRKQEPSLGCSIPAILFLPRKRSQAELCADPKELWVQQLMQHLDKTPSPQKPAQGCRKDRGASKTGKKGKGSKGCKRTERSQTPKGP

[3] = biological target: T3, GST-THAP3 181-284 (chemokine-binding domain of THAP3) (human, UniProt Q8WTV1 136-239); experiment: GST pull-down, 35S-labelled in vitro translated molecule
T3 construct: not shown: GST (glutathione S-transferase of pGEX2T) and its linker at the N end
T3 sequence: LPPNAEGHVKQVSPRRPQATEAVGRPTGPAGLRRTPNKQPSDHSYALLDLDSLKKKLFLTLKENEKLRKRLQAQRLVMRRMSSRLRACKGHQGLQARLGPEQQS

[4] = biological target: T4, GST (glutathione S-transferase) control protein (UniProt P08515 1-218 = GST); experiment: GST pull-down, negative control: in vitro translated 35S-labelled chemokine or cytokine on GST alone immobilised on glutathione sepharose, SDS-PAGE, fluorography
T4 construct: Negative control in GST pull-down assays; also called GST beads; GST alone
T4 sequence (P08515 whole entry): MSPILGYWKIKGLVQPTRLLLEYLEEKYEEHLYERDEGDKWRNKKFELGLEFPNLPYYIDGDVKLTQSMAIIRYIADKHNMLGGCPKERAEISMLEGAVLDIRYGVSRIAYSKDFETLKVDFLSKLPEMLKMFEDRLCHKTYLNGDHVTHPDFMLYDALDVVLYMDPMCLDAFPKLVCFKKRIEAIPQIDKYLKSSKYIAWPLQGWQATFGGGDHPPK

[5] = biological target: T5, GST-THAP1 fusion protein (THAP1 amino acids 1-213) (human, UniProt Q5RCE4 1-213 (Pongo abelii entry)); experiment: GST pull-down: in vitro translated 35S-labelled chemokine or cytokine on the GST fusion immobilised on glutathione sepharose, SDS-PAGE, fluorography
T5 construct: Expressed in E. coli, immobilized on glutathione sepharose; also called immobilized GST-THAP1; not shown: glutathione S-transferase encoded by vector pGEX-2T (Amersham Pharmacia Biotech)
T5 sequence: T1 sequence

[6] = biological target: T5, GST-THAP1 fusion protein (THAP1 amino …); experiment: GST pull-down: in vitro translated 35S-labelled protein on GST-THAP1 immobilised on glutathione sepharose, SDS-PAGE, fluorography
Method: To confirm the results obtained in yeast, THAP1 mutants were also tested in in vitro GST pull down assays. Wild type THAP1 expressed as a GST-tagged fusion protein and immobilized on glutathione sepharose (as described in example 16), was incubated with radiolabeled in vitro translated THAP1 mutants. In vitro-translated THAP1 mutants were generated with the TNT-coupled reticulocyte lysate system (Promega, Madison, Wis., USA) using pGADT7-THAP1-C1, -C2, -C3, -N1, -N2 or -N3 vector as template. 25 μl of each ³⁵S-labelled THAP1 mutant was incubated with immobilized GST or GST-THAP1 wild-type protein overnight at 4° C., in the following binding buffer: 10 mM NaPO4 pH 8.0, 140 mM NaCl, 3 mM MgCl2, 1 mM dithiothreitol (DTT), 0.05% NP40, and 0.2 mM phenylmethyl sulphonyl fluoride (PMSF), 1 mM Na Vanadate, 50 mM β Glycerophosphate, 25 μg/ml chimotrypsine, 5 μg/ml aprotinin, 10 μg/ml Leupeptin. Beads were then washed 5 times in 1 ml binding buffer. Bound proteins were eluted with 2× Laemmli SDS-PAGE sample buffer, fractionated by 10% SDS-PAGE and visualized by fluorography using Amplify (Amersham Pharmacia Biotech). As expected, THAP1-C1, -C2, -C3, -and -N3 interacted with GST/THAP1 (FIG. 16B).

[7] = biological target: T1, human THAP1 …; experiment: yeast two-hybrid, chemokine bait and THAP1 prey
chemokine CXCL8 = biological target: T6, chemokine CXCL8 (UniProt P10145 1-99, limits assumed); experiment: GST pull-down: in vitro translated 35S-labelled protein on the GST fusion immobilised on glutathione sepharose, SDS-PAGE, fluorography
T6 construct: 35S-labelled in vitro translation product
T6 sequence (looked up): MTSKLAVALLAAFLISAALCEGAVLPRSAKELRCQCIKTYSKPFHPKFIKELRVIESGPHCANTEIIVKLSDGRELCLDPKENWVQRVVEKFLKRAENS

[8] = biological target: T1, human THAP1 …; experiment: yeast two-hybrid, THAP1 bait

binding result [1]: binds
binding result [2]: binds
B1: THAP1-C3 deletion mutant (amino acids 143-213) (other)
chain: MHQRKRIHQLEQQVEKLRKKLKTAQQRCRRQERQLEKLKEVVHFQKEKDDVSERGYVILPNDYFEIVEVPA
notes: Gal4 fusion, in vitro translation product or GFP fusion according to assay

binding result [1]: binds
B2: THAP1-N3 deletion mutant (amino acids 1-192) (other)
chain: MVQSCSAYGCKNRYDKDKPVSFHKFPLTRPSLCKEWEAAVRRKNFKPTKYSSICSEHFTPDCFKRECNNKLLKENAVPTIFLCTEPHDKKEDLLEPQEQLPPPPLPPPVSQVDAAIGLLMPPLQTPVNLSVFCDHNYTVEDTMHQRKRIHQLEQQVEKLRKKLKTAQQRCRRQERQLEKLKEVVHFQKEKDD
notes: as for B1

binding result [1]: binds
binding result [2]: binds
B3: THAP1-C2 deletion mutant (amino acids 120-213) (other)
chain: MPPLQTPVNLSVFCDHNYTVEDTMHQRKRIHQLEQQVEKLRKKLKTAQQRCRRQERQLEKLKEVVHFQKEKDDVSERGYVILPNDYFEIVEVPA
notes: as for B1

binding result [3]: no binding
binding result [4]: no binding
binding result [5]: no binding
binding result [1]: no binding
B4: human cytokine interferon gamma (amino acids 21-166) (ligand)
chain: CYCQDPYVKEAENLKKYFNAGHSDVADNGTLFLGILKNWKEESDRKIMQSQIVSFYFKLFKNFKDDQSIQKSVETIKEDMNVKFFNSNKKKRDDFEKLTNYSVTDLNVQRKAIHELIQVMAELSPAAKTGKRKRSQMLFQGRRASQ
notes: Residues are given against GenBank NM-000619; Negative control; also called IFNγ; IFN

binding result [4]: no binding
B5: human chemokine MIG/CXCL9, mature form (amino acids 23-125) (ligand)
chain: TPVVRKGRCSCISTNQGTIHLQSLKDLKQFAPSPSCEKIEIIATLKNGVQTCLNPDSADVKELIKKWEKQVSQKKKQKNGKKHQKKKVLKVRKSQRSRQKKTT
notes: Residues are printed against GenBank NM-002416; Gal4 fusion or in vitro translation product

binding result [3]: no binding
binding result [6]: no binding
binding result [1]: no binding
binding result [2]: no binding
B6: THAP1-N1 deletion mutant (amino acids 1-90) (other)
chain: MVQSCSAYGCKNRYDKDKPVSFHKFPLTRPSLCKEWEAAVRRKNFKPTKYSSICSEHFTPDCFKRECNNKLLKENAVPTIFLCTEPHDKK
notes: Gal4 fusion, in vitro translation product or GFP fusion according to assay; also called zinc finger domain of THAP1

binding result [7]: binds
binding result [4]: no binding
B7: human chemokine ELC/CCL19, mature form (amino acids 22-98) (ligand)
chain: GTNDAEDCCLSVTQKPIPGYIVRNFHYLLIKDGCRVPAVVFTTLRGRQLCAPPDQPWVERIIQRLQRTSAKMKRRSS
notes: Residues are printed against GenBank NM-006274; Gal4-BD fusion or in vitro translation product

binding result (chemokine CXCL8): no binding
B8: GST-THAP2 133-228 (chemokine-binding domain of THAP2) (other)
chain: EAKKRIIKLEKEIASLRRKMKTCLQKERRATRRWIKATCLVKNLEANSVLPKGTSEHMLPTALSSLPLEDFKILEQDQQDKTLLSLNLKQTKSTFI
notes: Immobilized on glutathione sepharose; not shown: glutathione S-transferase encoded by vector pGEX2T (Amersham Biosciences)

binding result [8]: no binding
B9: THAP1ΔQRCRR mutant (deletion of residues 168-172) (other)
chain: MVQSCSAYGCKNRYDKDKPVSFHKFPLTRPSLCKEWEAAVRRKNFKPTKYSSICSEHFTPDCFKRECNNKLLKENAVPTIFLCTEPHDKKEDLLEPQEQLPPPPLPPPVSQVDAAIGLLMPPLQTPVNLSVFCDHNYTVEDTMHQRKRIHQLEQQVEKLRKKLKTAQQERQLEKLKEVVHFQKEKDDVSERGYVILPNDYFEIVEVPA

binding result [1]: binds
B10: THAP1-C1 deletion mutant (amino acids 90-213) (other)
chain: KEDLLEPQEQLPPPPLPPPVSQVDAAIGLLMPPLQTPVNLSVFCDHNYTVEDTMHQRKRIHQLEQQVEKLRKKLKTAQQRCRRQERQLEKLKEVVHFQKEKDDVSERGYVILPNDYFEIVEVPA
notes: Gal4 fusion, in vitro translation product or GFP fusion according to assay; also called THAP1-CL; THAP1ΔTHAP
